From PMC4622054

B1: CDA1 (actoxumab), fully human IgG1 mAb CDA (with HCV VH CDRs): VH CDR1-3 of CDA1 replaced by VH CDRs of HCV1; residues not printed (protein)
chain 1: QVQLVESGGGVVQPGRSLRLSCAASGFTFNNYGMHWVRQAPGKGLEWVALIWFDENNKDYTDSVKGRFTISRDNSKNTLYLQMNSLRAEDTAVYYCARDISLVRDAFIYFDFWGQGTVVTVSS
chain 2: DIQMTQSPSSVSASVGDRVTITCRASQGISSWLAWYQHKPGKAPKLLIYAASSLQSGVPSRFSGSGSGTDFTLTISSLQPEDFATYYCQQANSFPWTFGQGTKVEIK
B2: HCV1, fully human IgG1 mAb HCV (with CDA VH CDRs): VH CDR1-3 of HCV1 replaced by VH CDRs of CDA1; residues not printed (protein)
chain 1: EVQLLESGGGVVQPGRSLRLSCTASGFSFSNYGMHWVRQTPGKGLEWLAVIWYDGSNEYYADSVRGRFTISRDNSKNTLFLQMNSLKTEDTAMYYCARWGMVRGVIDVFDIWGLGTLVTVSS
chain 2: ELTLTQSPATLSLSPGERATLSCRASQSVSSYLAWYQQKPGQAPRLLIYDASNRATGIPARFSGSGSGTDFTLTISSLEPEDFAVYYCQQRSNWITFGQGTRLEIK
B3: HCV1, fully human IgG1 mAb HCV (with CDB Vk CDRs): Vk CDR1-3 of HCV1 replaced by Vk CDRs of CDB1; residues not printed (protein)
chain 1: EVQLLESGGGVVQPGRSLRLSCTASGFTFNNYGMHWVRQTPGKGLEWLAVIWFDENNKYYADSVRGRFTISRDNSKNTLFLQMNSLKTEDTAMYYCARDISLVRDAFIYFDFWGLGTLVTVSS
chain 2: ELTLTQSPATLSLSPGERATLSCRASQSVSSSYLAWYQQKPGQAPRLLIYGASNRATGIPARFSGSGSGTDFTLTISSLEPEDFAVYYCQQYGSSTWTFGQGTRLEIK

Biological target: Human FcRn (hFcRn), soluble α-chain/β2m heterodimer, P55899;P61769
Assay: BLI (in vitro BLI-based FcRn platform)
Conditions: chain shown with the change;, read off a plot

| Binder | other: Predicted Human t1/2, β (parent: est. 690) [days] | other: Predicted Human t1/2, β (parent: est. 270) [days] |
| --- | --- | --- |
| B1 | 15 | – |
| B2 | – | 22.9 |
| B3 | – | 13.3 |
